Experiment: yeast display, Sf9 membrane polyspecificity reagent, FACS + sequencing; frameworks hold sequencing errors
Summary of the method: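 Sorting gates, low and high (top ~1%), were placed on anti-HA fluorescence to track expression and on streptavidin fluorescence to track reagent binding. A clone's polyreactivity label is taken from the gate it came out of. The reagent was 10% biotinylated, detergent-solubilized Sf9 membrane, applied for 1 hour at 4 °C to galactose-induced yeast display cells.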

QVQLVESGGGLVQAGGSLRLSCAASGSIIGIYDMGWYRQAPGKERELVAAISWSGGSTYYADSVKGRFTISRDNAKNTVYLQMNSLKPEDTAFYYCAARGHYQYYWGQGTQVTVSS
polyreactivity (PSR sort gate): low polyreactivity

QVQLVESGGGLVQAGGSLRLSCAASGNIFRGYTMGWYRQAPGKERELVATITWNGVSTFYADSVKGRFTISRDNAKNTVYLEMNSLKPEDTAVYYCAAYYPSHDYSGFWSDTYEYWGQGTQVTVSS
polyreactivity (PSR sort gate): low polyreactivity

QVQLVESGGGLVQAGGSLRLSCAASGRIFVGYTMGWYRQAPGKERELVASISWSGASTYYADSVKGRFTISRDNAKNTVYLQMNSLKPEDTAVYYCAARYYKYYNSYDYWGQGTQVTVSS
polyreactivity (PSR sort gate): high polyreactivity

QVQLVESGGGLVQAGGSLRLSCAASGSIFGYYSMGWYRQATGKERELVATITWGGGSTYADSVKGRFTISRDNAKNTVYLQMNSLKPEDTAVYYCNAGYRYTSAQVTWEYDYWGQGTQVTVSS
polyreactivity (PSR sort gate): low polyreactivity

QVQLEESGGGLVQAGGRLRLSCAASGIIYDFYAMGWYRQAPGKERELVAAITSSGGSTYYADSVKGRFTISRDNAKKTVYLQMNSLKPEDTAVDYCAAEYTIYGTDQRYYYWGQGTQVTVSS
polyreactivity (PSR sort gate): low polyreactivity

QVQLVESGGGLDQAGGSLRLSCAASGSIFDDYAMGWYRQAPGKERELVAAISWSGGRTYYADSVKGRFTISRDNAKNTVYLQMNSLKPEDTAVYYCAATTGVRSRRYYYWGQGTQVTVSS
polyreactivity (PSR sort gate): low polyreactivity

QVQLVESGGGLVQAGGSLRLSCAAYGFIFPGNAMGWYIQAPGKERELVAAISNSGSRTYYADSVKGRFTISRDNAKNTVYLQMNSLKPEDTAVYYCNADVHNRGWPYDYWGQGTQVTVSS
polyreactivity (PSR sort gate): low polyreactivity

QVQLVESGGGLVHAGGSLRLSCAASGRIFVGYTMGGYRQGPGKERELVAAISWDGDITYYADSVKGRFTISRDKAKNTVYLQMNSLKPEDTAVYYCAVDLPVSESHHTLTFELDYWGQGSQVTVSS
polyreactivity (PSR sort gate): low polyreactivity

QLQLVESGGGLVQAGGSLRISCAASRSTFENNAMGWYRQAPGKERELVASSTNYADSVKGRFTISRDNAKNTVYLQMNSLKPEDTAVYYCAREQGVNRNHDYWGQATQVTVSS
polyreactivity (PSR sort gate): low polyreactivity

QVQLVESGGGLVQAGGSLRISCAASGSTFYHNVMGWYRPAPGKERELVASIDTGDSTNYADSVKGRFTISLDNAKNTVYLQMNSLKPEDTAVYYCNADSYPALNKRGYDYWGQGTQVTVSA
polyreactivity (PSR sort gate): low polyreactivity

QVQLVESGGGLVQAGGSLRLSCAASGRISFRIRWDGIDRRLGKKGSWLPLLTNTGSTNYADSVKGRFTISRDNAKNTVYLQMNSLKPEDTAVYYCNADQTGGSSYPAYFEYDYWGQGTQVTVSS
polyreactivity (PSR sort gate): low polyreactivity

QVQLVESGGRLVQAGGSLRLSCAASGITQGYYAMGWYRQAPGKERELVAAISYRGGNTYYADSVKGRFTISRDNAKNTVYLQMNSLKPEDTAVYYCNADLGYESGWWSKYDYWGQGTQVTVSS
polyreactivity (PSR sort gate): low polyreactivity

QVQLVESGGGLVQAGGSLRLSCAASGSIFFYYAMGWYRQAPGKEREFVAGITYSGGITYYADSVKGRFTISRDNGKNTVYLQMNSLKPEDTAVYYCDYGGGVYQYGYWGQGPQVTVSS
polyreactivity (PSR sort gate): low polyreactivity

QVQLVESGGGLVQAGGSLRLSCAASGSIFRSYAMGWYRQAPGKERELVAAISGRGSNTYYADSVKGRFTISRDNAKNTVYLQMNSLKPEDTAVYYCATRQWVFSHGYWGQGTQVTVSS
polyreactivity (PSR sort gate): high polyreactivity

QVQLVDSGGGLVQAGGSLRLSCDASGSIFYPYALGCYIQAPGKERELVAAITTSGGSTYYADSVKGRFTISRDNAKNTVYLQMNSLKPEATAVYYCSASYYSDIWPYSVYDLEFYWGQGTQVTVSS
polyreactivity (PSR sort gate): high polyreactivity

QVQLVESGGGLVQAGGSLRLSCAASGRIFSLNAMGWYRQAPGKERELVAGIRKRGGSTYYADSVKGRFTISRDNAKNTVYLQMNSLKPEHTAVYYCAAQPALTYRFYYWGQGTQVTVSS
polyreactivity (PSR sort gate): high polyreactivity

QVQLVESGGGLVQAGGSLRLSCAASGSIFTLYSMGWYRQAPGKERELVATINWSGGSTSYADSVKGRFTISRDNAKYTVYLQMNSLKADDTAVYYCAADYYFWHGTGYDYWGQGTQVNVSS
polyreactivity (PSR sort gate): low polyreactivity

QVQLVESGGGLVQAGGSLRLSCAASGSIFSENTMGWYRQAPGKKRELVADITSGGSTNYADSVKGRFTISRDNAKNTVYLQMNSLKPEDTAVYYCNADWEAYKYNYWGQGTQVTVSS
polyreactivity (PSR sort gate): low polyreactivity

QVQLVESGGGLVQAGGSLRLSCAASGFTFYGNAMGWYRQAPGKERELVASISTYYADSVKGRFTISRDNAKNTVYLQMNSLKPEDTAVYYCAATHYDRTYYVIYDYWGQGTQVTVST
polyreactivity (PSR sort gate): low polyreactivity

QVQHVESGGGLVQPGGSLRLSCAASGYTFYANAMGWYRQAPGKEREFVASITWSGGSSYYADSVKGRFTISRDNAKNTVYLHLNSLKPEDTAVYYCAAESWFKYDYWGQGTQVTLSS
polyreactivity (PSR sort gate): low polyreactivity

QFQLVESGGGLVQAGGILRLSCADSGSTFRWYAMGWYRKAPGKERELVASITYSGASTYYADSVKGRFTISRDNAKNTVYLQMISLKPEDTAVYYCNAVFWFSYVSEYDYWGQGTQVTVSS
polyreactivity (PSR sort gate): high polyreactivity

QVQLVESGGGLVQAGGSLRLSCAASGFTFPWYAKGWYRQAPGKERELVAAITSGSSTYYADSVKGRFTISRDNAKNTVYLQMNSLKPEVTAVYYCAKDGGWSRLHYNYWGQGTQVTVSS
polyreactivity (PSR sort gate): high polyreactivity

QVQLVESGGGLVQAGGSLRLSCAASGRTFRGYAMGWYRQAPGKERELVAAISVTGSSTNYADSVKGRFTISRDNAKNTVYLQMNSLKPEDTAVYYCAASYRLYKYDYWGQGTQVTVSS
polyreactivity (PSR sort gate): high polyreactivity

QVQLVDSGGGLVQAGGSLRLSCAASGRIFGYNAMGWSRQAPGKERELVAAITSDARTNYADSVKGRFTISRDNAKNTVYLQMISLKPEDTAVYYCAARRYPPRMDYWGHGTQVTVSS
polyreactivity (PSR sort gate): high polyreactivity

QVQLVESGGGLVQAGGSLRLSCAASGRTFNYNTMGWYRQAPGKERELVAAINKGGTRTYYADSVKGRFTISRDNAKNTVYLQMKSLNPEDTAVYYCAARIGGGSYWGQVTQVTVSS
polyreactivity (PSR sort gate): high polyreactivity

QVQLQESGGGLVQAGGSLRLSCAASGAIFDGFNMGWYRQAPGKEGEFVAAISYGASTDYADSVKGRFTVSRDNAKNSVYLQMNSLKPEDTAVYYCAVYDELYHVLVYWGRGTQVTVSS
polyreactivity (PSR sort gate): low polyreactivity

QVQLVESGGGLVQAGGSLRLSCAASGRLFPYYDMGWYRQAPGKERELVAAITGNGGSTYYADSVKGRFTISRDNAKNTVYLQMNSLKPEDTAVYYCAVDPYYYGEDYWGQGTQVTVSS
polyreactivity (PSR sort gate): low polyreactivity

QVQLVESAGGLVQAGGSLRLSCDASGSIFTTNAMGWYRQAPGKERELVAAITSTAGSTYYADSVKGRFKISRDNAKNTVYLQMNSLKPEDTAVYYCAATYNVGVKAWYDYWGQGSQVTVSS
polyreactivity (PSR sort gate): high polyreactivity

QVQLVESGGGLVQAGGSLRLSFAASGFTFTLYAMGLYRQAPGKEREFVAAITARGGSTYYADSVKGRFTISRDNAKNTVYLQMNSLKPEDTAVYYCNKEYGSRRYPYRYNYWGQGTQVTVSS
polyreactivity (PSR sort gate): high polyreactivity

QVQLVESGGGLVQAGGSLRLSCAASGFTFYGYAMGWYRQAPGKERELVAAINSAGRTYYADSVKGRFTISRDNAKNTVYLQMNSLKPEDTAVYYCASKYVRGHGYWGQGTQVTVSS
polyreactivity (PSR sort gate): high polyreactivity

QVQLVESGGGLVQAGGSLRLSCAASGRIFTDYAMAWYRQAPGKEREFVAAINKSGGSTYYADSVKGRFTISRDNAKNTVYLEMNSLKPEDTAVYYCAKSLGQTDWEYDSWGQGTQVTVSS
polyreactivity (PSR sort gate): low polyreactivity

QVQLVESGGGLVQAGGSLRLSCAASGSILTVYAMGWYRQAPGKERELVARIRSGDRTYYADSVKGRFTISRDNAKNTVYLQMNSLKPEDTAVYYCAAGSQRRYYHTNWDSFNYWGQGSQVTVSS
polyreactivity (PSR sort gate): low polyreactivity

QVQLVESGGGLVQAGGSLRLSCSASGSTFGRYVMGWYRQPPGKERELVAAISKNAGSTYYADSVKGRFTISRDNAKNTVYLQMNSLKPEDTAVYYCNTVYYWYSPLNYWGQGTQVTVSS
polyreactivity (PSR sort gate): high polyreactivity

QVQLVESGGGLDHAGGSLRLSCAASGFIFTPNAMGMYRQAPAKEREWVAAITSGGVTYYADSVKGRFTISRDNAKNTVYIQMNSLKPEGTAVYYCKKNHTGTVRDSIYGYWGQGNQVTVSS
polyreactivity (PSR sort gate): high polyreactivity

QVQLVESGGGLVQAGGSLRLSCAASGSTFYVYVMGWYRQAPGKERELVAAISRSGGRTYYADSVKGRFTISRDNAKNTVYLQMNSLKPEDTSGYYCNARGSRRGGPGYEYWGQGTQVTVSS
polyreactivity (PSR sort gate): high polyreactivity

QVQLVESGGGLVQAGGSLRLSCAASGNTFVQNDMGWYRQAPGKEREFVAAITWIGGSTRYADSVKGRFTISRDNAKNTVYLQMNSLKPEDTAVYYCAVKPVGWPRYRVDYWGQGTQVTVSS
polyreactivity (PSR sort gate): high polyreactivity

QVQLVESGGGLVQAGGSLRLSCAASGFTFYYYAMGWYRQAPGKERELVASISWRGGSTYYADSVKGRFTISRDNAKITVYLQMNSLKPEDTAVYYCAAQKRGSPGYRRDYWGQGTQVTVSS
polyreactivity (PSR sort gate): high polyreactivity

QVQLVESGGGLVQAGGSLRLSCAASGFTFWRYAMGWYRQAPGKERELVAAISRSGGGTYYADSVKGRFTISRDNAKNTVYLQMNSLKPEDTAVYYCAAALYKGSGELDYWGQGTQVTVSS
polyreactivity (PSR sort gate): high polyreactivity

QVQLVESGGGLVQAGGSLRLSCAASGSTFTPYAMGCYRQAPAKERELVAAINGGGTRTYYADSVKGRFTISRDHAKNTVFLQMNSLKPVDTAVYYCAARTSTSRSYPYNYWGQGTQVTGSS
polyreactivity (PSR sort gate): high polyreactivity

QVQLVESGVGLVQAGGSLRLSCAPSGRIFIYYAMGWYRQAPGKERELVATITASGDSTYYADSVKGRFTISRDNAKNTVYFQMNSLKPEDTAVYYCAADDGDYYEVDYWGQGTQVTVSS
polyreactivity (PSR sort gate): low polyreactivity

QVQLVESGGGLVQAGGSLRLSCAASGSTFTVNAMGWYREAPGKERELVAAITTSGGSTYYADSVKGRFTISRDNAENTVYFQMNSLKPEDTAVYYCNADGPWREVERPFRKEGNYWGQGTQVTVSS
polyreactivity (PSR sort gate): low polyreactivity

QVQLVESGGGLVQAGGSLRLSCAASGIIFVPNAMGWSRHPPGKERELVAAITGRGVSTYYADSVKGRFTISRDTAKKTVYLQMNSLKPEDTAVYYCAATLFSYSGGTHDYWGQGTQVTVSS
polyreactivity (PSR sort gate): high polyreactivity

QVQLVESGGGLVQAGGSLRLSCAASGFTFSRNAMGWYRQAPGKERELVAAIDSGGSTDYADSVKGRFTISRDNAKNTVYLQMNSLKPEDSAVYYCAKASSATRYVQLRQDYDYWGQGTQVTVSS
polyreactivity (PSR sort gate): low polyreactivity

Source: the nanobody polyreactivity screen of Harvey et al. (2022)
